This assay has as its target T1, recombinant LunX protein (antigenic protein fragment of SEQ ID NO: 9 with C-terminal 6His-Tag) (human, UniProt Q9NP55 103-256).
T1 construct: Expressed in E. coli Rosetta (DE3) from pET-22b(+); also called LunX prokaryotic recombinant fusion protein; human LunX protein
T1 sequence: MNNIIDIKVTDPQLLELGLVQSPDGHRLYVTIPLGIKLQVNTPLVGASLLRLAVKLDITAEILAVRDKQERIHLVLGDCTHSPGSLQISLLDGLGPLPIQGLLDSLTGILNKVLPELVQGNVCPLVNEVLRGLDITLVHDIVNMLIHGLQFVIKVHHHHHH
The experiment in a line: hybridoma screening, ELISA (and FACS).

B1: anti-LunX murine monoclonal antibody PrAb2 (hybridoma Ab2) (antibody, V domains shown)
VH: QVQLQQSGPELVKPGASVKISCKTSGYAFSRSWMSWVKQRPGQGLEWIGRIYPGDGDTKYSGKFEGKATLTADKSSSTAYMQLSSLTSVDSAVYFCARSGGIQGYGMDYWGQGTSVTVSS
VL: DIVVTQSPAALAVSLGQRATISCRASKSVSTSGYTYMHWYQQKPGQPPKLLIYLASKLESGVPARFSGSGSGTDFTLNIHPVEEEDAATYYCQHSRDLTFGSGTKLEIKR
notes: Mouse monoclonal antibody from hybridoma Ab2; heavy chain about 45 kDa, light chain about 25 kDa
As to B1, the binding result is recorded as “binds”.

B2: anti-LunX murine monoclonal antibody PrAb1 (hybridoma Ab1) (antibody, V domains shown)
VH: QVQLQQSGPELVKPGASVKISCKTSGYAFSRSWMSWVKQRPGQGLEWIGRIYPGDGDTNYNGKFKGKATLTADKSSSTAYMQLSSLTSVDSAVYFCARSGGIQGYGMDYWGQGTSVTVSS
VL: DIVLTQSPASLAVSLGQRATISCRASKSVSTAGYSYMHWYQQKPGQTPKLLIYLASKLESGVPARFSGSGSGTDFTLNIHPVEEEDAATYYCQHSRELTFGSGTKLEIKR
notes: Mouse monoclonal antibody from hybridoma Ab1; heavy chain about 45 kDa, light chain about 25 kDa
As to B2, the binding result was “binds”.

(Values after patent US20190322758A1 (IMMUNOPHARMACEUTIC INSTITUTE OF HEFEI RUIDA, published 2019).)
